# Measurements: a protein production outcome set (Wang et al. 2014)
# Assay: label from the status in PepcDB records
row,Sequence,protein production
1,PIKQSFLLKRSGNSLNKEWKKKYVTLSSNGFLLYHPSINDYIHSTHGKEMDLLRTTVKVPGKRPPRAISAFGPSASINGLVKDMSTVQMGEGLEATTPMPSPSPSPSSLQPPPDQTSKHLL,failed
2,PKAPVTGYVRFLNERREQIRTRHPDLPFPEITKMLGAEWSKLQPAEKQRYLDEAEKEKQQYLKELWAYQQSEAYKVCTE,not failed
3,PKIAGIDLGTTYSSIGIYHAVTGETIILPDDLGKKSVPSVVAFLPNGTVLIGTRATEQQEHNPKRTIYDAKRFIGRNFEKNNKDFLSDQKRYPFKINLDSEGKAFFEIPLDSGTKNVYPEEIGSLIIGYLKSAAAKHLGVTLGQVVISCPAEFNEKQRNFTAKAAEIAEMEVRRVISEPTAAALAYGLHKKQGVENVVVVDLGGGTLDVSVLWLQGGVFVTQAMAGNNRLGGQDFNDRVQKHLISKIAEKFGKTIDNKEDIQQIRMEVEKGKIRLTNVPSTTISLNLKTVGKWNYELTRDEFETLNGDLLKAIELPITAALADANLDTADVDEIVLVGGSTQVPAVRKIVGRFFKKSANYGVDPELAVVTGASVQAGVIGGGWPLQVAAMELPAKRRKRHFFTEEQKENEKDRTISEL,not failed
4,PKTGPTMTKELVFSSNIGQHDLDTKSKQIQQWIEKKYHVQVTIKRRKDAEQSEEETEEIFNQILQTMPDIATFSSRPKAIRGGTASMCVFRHLSKKEEK,not failed
5,PLAGTITEADVRRYAASCCVQGVTTITDLHNDLADPTIEVYRSATSQADFGVRLVPALAAVSHTPEQAIAKLETLRGHASDKLHYGIVKLVVDGSIQGFTARLRWPGYHNGAANGLWYIAPEELPRLVEAYHRAGVQLHIHTNGDEATEVALDAIEAAQTVAPRPDHRHTLQHCQMASAAQFRRMKNLGVCANLFANHLYYWGDAHYELTMGPERAARLDATGTAQRIGVPFAIHSDAPVTPLAPLFTAWCAVNRVSSSGRVLGRDTEALTTEQALAAITIGAAYTLKMDHLVGSIETGKYADFVVLDEDPLAVPPERLKEIAVWGTVVGG,failed
6,PLLTEEALFGEDRHVLGEKGVVVRVFSDFQCPYCQRLAREVLPALKAMAREGRLRLAYRHFPLYEIHPEAVPAAVASECAAAQGAFWAYHDLLMAGSGWDYPALARRLGLDPKAFQACLEDPASRAPVEADRALAERLGLPGTPSVFVGPFRLPNPFDLERYRDYLALAEAL,failed
7,PLNRLGHKIYQHSGKWLQETAAEKLNQRDQLINPGHAQVLILGMGRIGTGAYDELRARYGKISLGIEIREEAAQQHRSEGRNVISGDATDPDFWERILDTGHVKLVLLAMPHHQGNQTALEQLQRRNYKGQIAAIAEYPDQLEGLLESGVDAAFNIYSEAGSGFARHVCKQLEPQFTSIK,not failed
8,PLPPPRALTLAAVTPRTVHLTWQPSAGATHYLVRCSPASPKGEEEEREVQVGRPEVLLDGLEPGRDYEVSVQSLRGPEGSEARGIRARTPT,not failed
9,PLQFHSVHGDNIRISRDGTLARRFESFCRAITFSARPVRINERICVKFAEISNNWNGGIRFGFTSNDPVTLEGTLPKYACPDLTNRPGFWAKALHEQYCEKDNILYYYVNGAGDVIYGINNEEKGVILTGIDTRSLLWTVIDIYGNCTGIEFLDSRIYMYQ,not failed
10,PMVLVVLDHDGNRLKKGSLEALTRARDLAQALGGKVAGVLLAEEKAPVEEARKYVEVLYTATLGPYTAEKWAAGVLKAAEASGAKAVVAPSSRQSRAYLGRVAYALRAGLLEDTLESRVEGGEVHATRYAYLNRVTQRVKAALPVVLTVKPNTTPLAEPLPGEAEAVALSVPEVPTVEVLERLQEEKKGVS,failed
11,PPKIRVVVRKRPISKKERERGDDDVVDVLAKNNTVVVNEEKVKVDLTKYLEKHAFKFDESLDENVSNEAVYQLTVGPLVRTLFRNGRASCFAYGQTGSGKTYTMSPLPIRASADIFTFMAQQQYRDISLCVSCFEIYGNKVFDLLNARKKLNILEDGKKKVVVVGLKEFGVDDVDGVKALIEESAKNRSTGSTAANADSSRSHSIMQFALKRAA,failed
12,PPLPLVYERIMLKGKGAMHSSTGLAIPASEIIDVMPPELLRFLIARVNPSRHIDFDP,failed
13,PQKKVIVLVHGLASSPEAWIALTNDIMGDNILREHYQVWQVFYSTNMPILESRFQIYALLKQAFDSLNPNDPADHNAVLIGHSMGGIISRLLVSQADISQKAFSLVSPYQQAQLKKQPMVYQRLKIQPIPNFDRAIFMSAPHHGTDFADLWFTRAARKIIKLPGAFLGAITDTVTNENIDAKDLLLRIDQGLIQNGPSDLSYKSKFIELTKNINPPSGFVFHSIIGNNTKSDDPEKITDGIVPYKSAHLEGSASEKIIQGGHSIQETPQAVLELRRILRLHLKEHQ,failed
14,PRFLFVHGWGFDRNFWEPVRRAIGQHNGDSLDFGYFGQSKLEYDWSQPFIAVGHSLGFLWLLQQPLAACIQLISINGFSRFFAGSDWPFGVPQRVTKRMQLALHRDAKKTLDQFYETVGFFDTSEKRYDLAALDNGLEFLMTQDNRSIAKKQAHKIAIMASDQDPIVPVSLTKACFPTPTPILWNKDGGHLLPITDPDSCANFIRDVVK,failed
15,PRTVKELTVSAGDNLIITLPDNEVELKAFVAPAPPVETTYNYEWNLISHPTDYQGEIKQGHKQTLNLSQLSVGLYVFKVTVSSENAFGEGFVNVTVKPAR,not failed
16,PVVVSEAGASVYSASEAAAREFPDMDVSLRGAVSIARRLQDPLAELVKIDPKAIGVGQYQHDVNQTALAKTLDAVVEDAVNAVGVDLNTASVPLLARVAGVSPTIAENIVHYRDEHGAFVNRTALKKVPRLGPKAFEQCAGFLRISGGKDPLDASAVHPEAYPVVRKMSEATGLSVEKLIGNSHVLSSLRPSDFA,failed
17,QDISQRKKEQEALAESESRFQELADLLPQPVFELDMKGNIIYTNSLGFQAFGYTKDDLEKGVSSLALFVPEDRETVLQNIENRLKNIPFENHEYTALRKDGTTFPILIYTARINRGGVPVGIRGIVLDITDRKQAEENLVQLNQNLELRVEERTRELEVTHQQMILQEKLASIGQLAAGIAHELNNPINFVRINFATLQEDVSDLHTLLKEYRLVTEKLEDR,failed
18,QDSDSTAAVAVLKRAVELDAESRYQQALVCYQEGIDMLLQVLKGTKESSKRCVLRTKISGYMDRAENIKKYLDQEKEDGK,not failed

row,Sequence,protein production
1,QDVPVTQVMTPRPVVFRVDATMTINEFLDKHKDTPFSRPLVYSEQKDNIIGFVHRLELFKMQQSGSGQKQLGAVMRPIQVVLNNTALPKVFDQMMTHRLQLALVVDEYGTVLGLVTLEDIFEHLVGE,not failed
2,QEGIISLDTEGRVVLMNPKAEEMTGRSQNESCGLPIEDVFILWSPLQDKNQLVAINQCLAEGRHTLLPEGSQLLSSQGERQEIRCSASPIRDRDNLLTGAVVVFQDVTRARHEQRELQYQANHDMLTGLINRRRLEERLNQAISQLGQDEQHILCYVDLDYFKDVNDSAG,failed
3,QEIRPMPADSAYGVVHISVCNMRDEGKFTSGMSTQALLGMPVKVLQYTGWYEIQTPDDYTGWVHRMVITPMSKEKYDEWNRAEKIVVTSHYGFTYEKPDDDSQTVSDVVAGNRLKWEGSKGHFYKVSYPDGRQAYISRHISQPESKWRASLKQDAESIIKTAYTMIGIPYLWAGTSSKGVDCSGLVRTVLFMHDIIIPRDASQQAYVGERIEIAPDFSNVQRGDLVFFGRKATADRKEGISHVGIYLGNKRFIHALGDVHISSFDPEDECYDEFNTGRLLFATRFLPYINKEKGMNTTDHNLYYLHH,not failed
4,QELKGKYMKTPTGYLMVLRHGDNVLQNLEQLARDEHIPSASFVGIGFMSEATFGFYDFGRKQFDPKTYRNVEMANMTGSIAWKEGKPSIHAHGTVTDGTFQGAGGHLLGLTVGTGSCEITVTVYPQRLDRFVDPEIQANVLGLPQQ,not failed
5,QEVSWTQYTQRKFQKSRQPRPSSQYNQRLFGGDMEKFIQSSGQPVPLVVESCIRFINLNGLQHEGIFRVSGAQLRVSEIRDAFERGEDPLVEGCTAHDLDSVAGVLKLYFRSLEPPLFPPDLFGELLASSELEDTAERVEHVSRLLWRLPAPVLVVLRYLFTFLNHLAQYSDENMMDPYNLAVCFGPTLLPVPAGQDPVALQGRVNQLVQTLIVQPDRVFPPLTSLPGPVYE,failed
6,QGPVGTRIRLALGQDVEAANALMATTGDGVRIIPVLATAIEDGSASSAMLAGLGGIGTNAYHEAASHTFTDRPMNEALTTVSLTLVAADEEDRIVGVLSATAPGTLIDMAMSNGFTAEKAMALSLFVAKIHGLAVAEHARGQGIAAALLKRTWQVYQQLGYMLLYGSYEADRDLAAFYTRSGYTVHAPG,failed
7,QIDFQVLHDLRQKFPEVPEVVVSRCMLQNNNNLDACCAVLSQESTRYLYGEGDLNFSDDSGI,not failed
8,QKGRVETRRVVHIMDFQRGKNLRYQLLQLVEPFGVISNHLILNKINEAFIEMATTEDAQAAVDYYTTTPALVFGKPVRVHLSQKYKRIK,not failed
9,QKRAWITAPVALREGEDLSKKNPIAKIHSDLAEERGLKITYKYTGKGITEPPFGIFVFNKDTGELNVTSILDREETPFFLLTGYALDARGNNVEKPLELRIKVLDINDNEPVFTQD,not failed
10,QLAEVEVKKFKQMTEAIGPSTIRDLAVAGPEMQVKLLQSLGLKSTLITDGSTPINLFNTAFGLLGMGPEGQPLGRRVASGPSPGEGISPQSAQAPQAPGDNHVVPVLR,failed
11,QLQDGKGEKVMVEYSSPNTNKPLHLGHLRNNFLGYSISQILKANGFDVIKANLVNDRGIHICKSMIAYQKSGLGETPVSTGMKGDHLVGKYYVAFDKQLKKEVEALVAAGVEEDKAKKEAPILKEAQAMLLKWEQGDKEVYDLWKTMNGWVYDGFNASYKKIGVTFDHFYYESNTYLLGKDIVEEGLAKGVFNKRADGSVWIDLTAEGLDEKLVLRSDGTSVYITQDLGTAELKYKDFGCKRSVYVVGNEQDYHFIVLIHILKKLGKPYANGVYHMSYGMVDLPSGKMKSREGTVVDADDLVDEMIATAKERTLEQGKTDGFSEEQATHLYETLGLGALKYFLLKVDPKKRMMFNPEESIDFQ,failed
12,QNRGSLSTARSYISMGVGRVYVMKDSPNDIELTMAEGVDVGRYVDYRELAIKIADNRIDVKKNKEIINSRFKLKYKNLSSIYN,failed
13,QNRIDMAMMRGRCGLWDWNMASGRVYWSRAMYEMLGYIPQDALLSISQITAIINPNDANFFDLAQELMSGKKKHIDINVPMRHADGHYVWMRIRAEVTDEEELHLVGIAFDIS,failed
14,QNVLDLHGLHVDEALEHLMRVLEKKTEEFKQNGGKPYLSVITGRGNHSQGGVARIKPAVIKYLISHSFRFSEIKPGCLKVMLK,not failed
15,QPTAQQQLTKPAKITCANCKKPLQKGQTAYQRKGSAHLFCSTTCLSSFS,not failed
16,QRALVLTAARGRGKSAATGLSIAGLIEKLRERKEKSIRIIVTAPSIASASQVMSFAKLGLEALGEELSVKVSDTGHIKSLRGDYFKLEYVPPDAAIEDEGELLIIDEAAALGINYIDLALRAWKKVALVTTVHGYEGSNKAFLRYLRRLIESKRIRVKWVNMEQPLRYAKGDPIEKWLYDALLLD,failed
17,QRSYERDFPHHDRICIVKTHGTRQSQEGDKPEELDFSQVSGGVAPAIQEEIPGVELATRTTLYGTSKMILEDNKTYETKTLLAEPAFLDMFGVELIAGVRDSALRDNMTCLISESLARKMGGDVLGKRLRPAESKSDRAITIGGVFEDLPHNSSIQADMLLPITWMPAESLNNWIGNDRYIAYVRLRPGVSPESLDEALLEMQKRHQDMEVFRKAGVELHYSLTPFNRLRLEDPTLVNMLRIQQ,not failed
